The test concerns the target Human GPR49 (LGR5), full length, on cells (human) (UniProt O75473). Briefly: cell-based or functional assay.

In US20140256041A1 one finds increase in proliferation, GPR49-3T3 clone 28 data, which are given here for one substance.

Sequence of Human GPR49 (LGR5), full length, on cells (human) (O75473 22-907 limits assumed): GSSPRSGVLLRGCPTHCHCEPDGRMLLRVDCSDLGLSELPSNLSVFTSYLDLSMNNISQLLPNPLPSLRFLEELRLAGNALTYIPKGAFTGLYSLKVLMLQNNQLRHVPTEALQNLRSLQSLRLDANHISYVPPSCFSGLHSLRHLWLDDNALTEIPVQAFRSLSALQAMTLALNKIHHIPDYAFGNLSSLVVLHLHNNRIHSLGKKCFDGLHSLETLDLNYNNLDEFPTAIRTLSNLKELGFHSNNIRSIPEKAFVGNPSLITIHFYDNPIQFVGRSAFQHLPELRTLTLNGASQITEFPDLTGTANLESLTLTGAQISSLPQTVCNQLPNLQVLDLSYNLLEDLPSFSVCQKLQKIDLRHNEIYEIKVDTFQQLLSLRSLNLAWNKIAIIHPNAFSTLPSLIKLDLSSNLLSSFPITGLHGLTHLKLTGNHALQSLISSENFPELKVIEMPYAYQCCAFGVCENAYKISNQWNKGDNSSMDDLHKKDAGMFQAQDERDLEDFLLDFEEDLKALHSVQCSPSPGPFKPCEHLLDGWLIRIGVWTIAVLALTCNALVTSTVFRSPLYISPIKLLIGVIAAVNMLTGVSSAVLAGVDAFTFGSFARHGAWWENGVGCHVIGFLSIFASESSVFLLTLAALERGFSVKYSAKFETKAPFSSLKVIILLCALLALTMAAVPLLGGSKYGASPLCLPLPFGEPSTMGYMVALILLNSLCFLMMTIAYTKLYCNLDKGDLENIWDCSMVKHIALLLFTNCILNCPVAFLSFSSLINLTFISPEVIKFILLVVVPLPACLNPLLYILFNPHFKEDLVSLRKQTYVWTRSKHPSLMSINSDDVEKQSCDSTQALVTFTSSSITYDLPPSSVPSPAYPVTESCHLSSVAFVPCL

The substance R-spondin 1 (ligand) returned an increase in proliferation, GPR49-3T3 clone 28 of 4 fold.
